Source: paper doi:10.1101/2025.01.09.632146

Target: AtSAR1c-GFP (Arabidopsis thaliana) (UniProt O04834)
Test: co-IP

UniProt O04834, sequence (O04834 whole entry): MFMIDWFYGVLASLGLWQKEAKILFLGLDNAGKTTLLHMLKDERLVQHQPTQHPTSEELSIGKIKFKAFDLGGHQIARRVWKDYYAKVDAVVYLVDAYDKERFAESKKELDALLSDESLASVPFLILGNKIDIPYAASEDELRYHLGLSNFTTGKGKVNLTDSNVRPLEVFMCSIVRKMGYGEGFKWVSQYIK

For “endogenous AtPHF1 (from UniProt Q8GYE0 1-398) (natural protein)”, which fold co-immunoprecipitated against AtSAR1b[H74L]-CFP is on record?
The fold co-immunoprecipitated against AtSAR1b[H74L]-CFP was 4 fold.

And the fold co-immunoprecipitated against GFP?
The fold co-immunoprecipitated against GFP was 3 fold.

And the fold co-immunoprecipitated against GFP, normalised, Pi deficiency?
The fold co-immunoprecipitated against GFP, normalised, Pi deficiency was 30 fold.
